Laboratory results taken from publication PMC6123711, “Conformational signatures in β-arrestin2 reveal natural biased agonism at a G-protein-coupled receptor” (Communications Biology, 2018).
Marks after values point to notes of the source that are not given here.

Assays:
[1] = test system: Galr2; assay: β-Arrestin1/2-dependent Erk1/2 phosphorylation (Gαq/11-knockout HEK293 cells); format: cell-based, human; conditions: for ΔLog(τ/KA), β-Arrestin1/2 dependent-pErk1/2: normalized to Galanin (reference agonist), in parenthesis, mean ± s.e.m. of three experiments in triplicate; for Log(τ/KA), β-Arrestin1/2 dependent-pErk1/2: western blot, 5 min stimulation, operational model (Eq. 2), mean ± s.e.m. of three experiments in triplicate (table footnote)
Text: Galr2 is primarily coupled to the Gαq-protein which activates the phospholipase C/protein kinase C pathway for inositol phosphate production. We measured G-protein activation in HEK293 cells transiently expressing Galr2, using the serum response element-luciferase (SRE-Luc) gene reporter assay[10],[37] and for a more specific monitoring of Gαq-protein activity we also measured total inositol phosphate production. […] However, some differences were observed between SRE-Luc activity and total inositol phosphate production in the rank order of potency of the tested ligands. […] Phosphorylation of extracellular signal-regulated protein kinases 1 and 2 (pErk1/2) is either G-protein or β-arrestin dependent. To distinguish Gαq-protein- and β-arrestin1/2-dependent Erk1/2 signaling, we examined ligand-stimulated Erk1/2 phosphorylation in three different HEK293 cell lines, wild type, Gαq/11-knockout, and β-arrestin1/2-knockout cells. All three ligands induced high levels of Erk1/2 phosphorylation dose-dependently in wild-type HEK293 cells.
Fig. 5 Galr2 agonists display different Gαq-protein-dependent signaling and pErk1/2. The ability of increasing concentrations of agonists to induce a SRE-Luc activity and b total inositol phosphate production. c Representative western blot showing ligand-induced phosphorylation of Erk1/2 from wild-type (HEK293 WT), Gαq/11-, and β-arrestin1/2-knockout HEK293 cells expressing Galr2 (original blots are presented in Supplementary Figure 4). pErk1/2 and total Erk levels were determined at 5 min after stimulation of different concentrations of three ligands. Western blot band intensities corresponding to each concentration were quantified using Image studio ^TM Software. […] Data are the mean ± s.e.m. values of two independent experiments
pErk1/2 was measured using western blot assay. HEK293 Gαq/11 and β-arrestin1/2-knockout cells were a kind gift from Professor Asuka Inoue, Tohoku University. The cells were seeded into 6-well plates at a density of 6 × 10^5 cells per well. The next day, they were transfected using 2 μg/well of plasmid containing human Galr2 cDNA and Lipofectamine 2000, according to the manufacturer’s instructions. Before assay, the cells were washed with phosphate-buffered saline and incubated in serum-free DMEM overnight. Dose–response experiments were performed for each ligand at 37 °C. Stimulation of the cells was terminated after 5 min of agonist stimulation by removing the medium, and the addition of 250 μl cold lysis buffer to each well. Immunoblots of phospho-Erk1/2 were obtained using 8 μg of total protein and p44/42 MAPK Erk1/2 antibody (Cell Signaling Technology Inc, catalog no. 4370 S); horseradish peroxidase-conjugated goat anti-rabbit IgG was used as a secondary antibody (Thermo Fisher Scientific). […]

[2] = test system: Galr2; assay: Quantification of biased agonism between two pathways (operational model); format: cell-based, human; conditions: for ΔΔLog(τ/KA) (bias factor), Gαq-dependent-pErk1/2/β-arrestin1: Gαq-dependent-pErk1/2 vs β-arrestin1; for ΔΔLog(τ/KA) (bias factor), SRE-Luc/clathrin:β-arrestin2: SRE-Luc vs clathrin:β-arrestin2; for ΔΔLog(τ/KA) (bias factor), SRE-Luc/β-arrestin1: SRE-Luc vs β-arrestin1; for ΔΔLog(τ/KA) (bias factor), SRE-Luc/β-arrestin2: SRE-Luc vs β-arrestin2; for ΔΔLog(τ/KA) (bias factor), Total inositol phosphate/clathrin:β-arrestin2: total inositol phosphate vs clathrin:β-arrestin2; for ΔΔLog(τ/KA) (bias factor), Total inositol phosphate/β-arrestin1: total inositol phosphate vs β-arrestin1; for ΔΔLog(τ/KA) (bias factor), Total inositol phosphate/β-arrestin2: total inositol phosphate vs β-arrestin2; for ΔΔLog(τ/KA) (bias factor), β-Arrestin-dependent-pErk1/2/β-arrestin2: β-arrestin-dependent-pErk1/2 vs β-arrestin2
Description: To determine whether differential signaling at Galr2 (Figs. 2 and 5) may be translated into biased agonism, we used the operational model of agonism (Eq. 2) to calculate the logarithm of the transduction coefficient (log(τ/KA)) for each agonist at each pathway (Table 1)[4]. We used Galanin as a reference ligand during all experiments. […] We also calculated bias factors for G-protein-dependent pErk1/2 and β-arrestins.
Quantification of bias between each pathway was performed using Galanin as a reference ligand. All incubations for the different signaling assays were performed in serum-free medium to prevent peptide degradation.
To calculate biased factors and compare agonist profiles, the dose–response data were fit to the following form of the operational model of agonism:[42]2 Y=Basal+Em-basalτ/KA^n[A]^n/[A]^nτ/KA^n+1+[A]/KA^n where Em is the maximal possible response of the system, Basal is the basal level of response, KA represents the equilibrium dissociation constant of the agonist (A), and τ is an index of the signaling efficacy of the agonist that is defined as RT/KE. RT is the total number of receptors, KE is the coupling efficiency of each agonist-occupied receptor, and n is the slope of the transducer function that links occupancy to response. One assumption of the analysis is that the transduction machinery used for a given cellular pathway are the same for all agonists, such that the Em and transducer slope (n) are shared between agonists. The data for all compounds for each pathway were fit globally, to determine values of KA and τ. Biased agonism was quantified as previously described. […] The relative bias can then be calculated for each agonist at the two different signaling pathways by subtracting the Δlog(τ/KA) of one pathway from the other to give a ΔΔlog(τ/KA) value, which is a measure of bias. […] All transduction ratios (log(τ/KA)) parameters were estimated as logarithms. All results were expressed as mean ± s.e.m. values. We performed a Brown–Forsythe test (Graph Pad Prism 7.0) to assure ourselves of equal variances between the compared parameters.

[3] = test system: Galr2; conditions: cited from earlier work
Text: (§1) G-protein-coupled receptors (GPCRs) are the largest family of cell surface receptors that communicate extracellular stimuli to the cell interior[1]. Biased ligands are of particular interest because they offer the possibility to design a novel class of therapeutic agents. In some GPCRs, biased ligands that preferentially activate G-protein-dependent signaling have therapeutic potential. […] Most descriptions of biased ag ...

[4] = test system: galanin receptor 3 (Galr3); conditions: cited from earlier work
Text: as §1

[5] = reference agonist Galanin, mean ± s.e.m. of three experiments in triplicate

Molecule	ΔLog(τ/KA), β-Arrestin1/2 dependent-pErk1/2 [1]	Log(τ/KA), β-Arrestin1/2 dependent-pErk1/2 [1]	overall signaling at Galr2 ([2]; G-protein and β-arrestin1/2)	ΔΔLog(τ/KA) (bias factor), Gαq-dependent-pErk1/2/β-arrestin1 [2, 5]	ΔΔLog(τ/KA) (bias factor), Gαq-dependent-pErk1/2/β-arrestin2 ([2]; Gαq-dependent-pErk1/2 vs β-arrestin2, reference agonist Galanin, mean ± s.e.m. of three experiments in triplicate)	ΔΔLog(τ/KA) (bias factor), SRE-Luc/clathrin:β-arrestin2 [2, 5]	ΔΔLog(τ/KA) (bias factor), SRE-Luc/β-arrestin1 [2, 5]	ΔΔLog(τ/KA) (bias factor), SRE-Luc/β-arrestin2 [2, 5]	ΔΔLog(τ/KA) (bias factor), Total inositol phosphate/clathrin:β-arrestin2 [2, 5]	ΔΔLog(τ/KA) (bias factor), Total inositol phosphate/β-arrestin1 [2, 5]	ΔΔLog(τ/KA) (bias factor), Total inositol phosphate/β-arrestin2 [2, 5]	ΔΔLog(τ/KA) (bias factor), β-Arrestin-dependent-pErk1/2/β-arrestin2 [2, 5]	affinity toward Galr2 [3]	affinity toward Galr3 [4]	biased agonism, pErk1/2 vs β-arrestin isoforms ([2]; Gαq-dependent pErk1/2 vs the two β-arrestin isoforms, relative to Galanin)	biased agonism, β-arrestin-dependent pErk1/2 vs β-arrestin2 recruitment ([2]; relative to Galanin)	biased agonism ([2]; relative to Galanin, Gαq-protein-dependent signaling vs β-arrestins and β-arrestin2–clathrin)	activation of Galr2 [3]	activation of Galr3 [4]
Galanin [reference compound]	0.00 ± 0.40	6.42 ± 0.41	robust signaling toward G-protein and β-arrestin1/2	0.00 ± 0.22	0.00 ± 0.04	0.00 ± 0.17	0.00 ± 0.002	0.00 ± 0.02	0.00 ± 0.19	0.00 ± 0.03	0.00 ± 0.05	0.00 ± 0.38	high affinities	low affinity					
Spexin (peptide, UniProt Q9BT56 27-116, looked up, Spexin, endogenous peptide ligand of Galr2 and Galr3; synthesized by AnyGen) Spexin: APQRLLERRNWTPQAMLYLKGAQGRRFISDQSRRKDLSDRPLPERRSPNPQLLTIPEAATILLASLQKSPEDEEKNFDQTRFLEDSLLNW	0.73 ± 0.13	7.15 ± 0.14		1.10 ± 0.29^b		1.88 ± 0.07^b	0.63 ± 0.06^b	0.77 ± 0.02^b	1.84 ± 0.12^b	0.60 ± 0.09^b	0.73 ± 0.09^b	1.40 ± 0.16^a			biased signaling toward Gαq-dependent pErk1/2 over the two β-arrestin isoforms	biased agonism was also detected toward β-arrestin-dependent pErk1/2 over β-arrestin2 recruitment	biased agonism toward Gαq-protein-dependent signaling over β-arrestins and β-arrestin2–clathrin interactions	activates Galr2 and Galr3 with high affinities	activates Galr2 and Galr3 with high affinities
